Source: patent US20220403048A1, “BINDING MOLECULES TO ARGINASE II [ARG2]” (Cancer Research Technology Limited, priority 2019, published 2022)

Target: T1, THP-1 lysate derived human trimeric ARG2 (Homo sapiens, UniProt P78540)
T1 construct: expressed in transfected cells; host or cells: THP-1 cells overexpressing human ARG2 (cell lysate)
T1 sequence (P78540 23-354): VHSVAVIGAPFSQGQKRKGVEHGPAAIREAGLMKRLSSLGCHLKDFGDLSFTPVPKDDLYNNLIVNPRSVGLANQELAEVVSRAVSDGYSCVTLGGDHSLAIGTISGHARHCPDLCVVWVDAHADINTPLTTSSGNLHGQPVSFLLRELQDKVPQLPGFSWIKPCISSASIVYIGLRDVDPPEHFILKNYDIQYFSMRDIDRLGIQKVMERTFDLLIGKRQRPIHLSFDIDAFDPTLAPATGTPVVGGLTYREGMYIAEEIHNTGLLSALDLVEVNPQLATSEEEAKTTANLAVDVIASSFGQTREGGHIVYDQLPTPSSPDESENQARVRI
Assay: ELISA binding to THP-1 lysate derived human ARG2
Settings: biotinylated recombinant human IgG1, FIG. 6
Procedure: C0020187 and C0020065 IgGs were tested for their ability to bind to mammalian expressed human ARG2 produced in transfected THP-1 cells. Lysates of human ARG2 transfected THP-1 cells were prepared and binding to these lysates measured using an ELISA.
Cell lysates were prepared from THP-1 cells overexpressing human ARG2 and from wild type THP-1 cells. Between 600,000-1,000,000 cells were suspended in 1 ml tris-buffered saline (25 mM tris+150 mM sodium chloride in dH2O, pH 7.4) and cell lysates prepared using QIAshredders (QIAgen, UK; cat: 79654).
For the ELISA, maxisorp white plates (Nunc; cat: 437796) were coated overnight at 4° C. with rabbit anti-human ARG2 antibody (Abcam, ab137069) at 1 μg/ml in PBS. The next day, the plate was washed with PBS and blocked with casein blocker (Thermo Scientific, 37528). […]
The blocked ELISA plate was washed with PBS and 50 μl of the pre-incubation mixtures were transferred to the ELISA plate and incubated for 90 minutes at room temperature. […] Next, 100 μl PICO ELISA substrate (Thermo Scientific, 37070) was added to each well, the plate was incubated for 1 minute at room temperature in the dark before being read for luminescence using the Envision plate reader. Data were analysed using GraphPad Prism. […]

B1: C0020065: anti-ARG2 antibody, alternate lead isolation clone, VH SEQ ID NO: 2, VL SEQ ID NO: 7 (antibody, listed as Homo sapiens, V domains shown)
VH: GVNLRESGGGVVQPGRSLRLSCAASGFTFSSYAMHWVRQAPGKGLEWVAVISYDGSNKYYVDSVKGRFTISRDNSKNTLYLQMNSLRAEDTAVYYCARDSSQLWFDYWGRGTLVTVSS
VL: QSVVTQPPSVSGAPGQRVTISCTGSSSNIGTGYDVHWYQQLPGTAPKLLIYGNSNRPSGVPDRFSGSKSGTSASLAITGLQAEDEADYYCQSYDSSLSGSVVFGGGTQLTVL
modifications: C0020065
  binding to THP-1 lysate derived human trimeric ARG2: strong binding
